Assay [1] has as its target Human FcγRIIIa_V158 (human).
Assay [2] deals with Human FcγRIIIa_V158 (human). This is another data set of the same source.

Read-outs that look alike come from different tables or passages of the source.

Take IgG1, di-sialylated variant (antibody): the relative ADCC activity (NK cell line expressing FcγRIIIa V158; target cells expressing a receptor of the EGFR family; relative to a reference material set to 100%) in assay [1] is 115%.
Turning to “IgG1, hyper-galactosylated variant (antibody)”, the relative ADCC activity (NK cell line expressing FcγRIIIa V158; target cells expressing a receptor of the EGFR family; relative to a reference material set to 100%) in assay [2] stood at 118%.
Consider “IgG1, hypo-galactosylated variant (antibody)”, for which, in assay [2], the relative ADCC activity (NK cell line expressing FcγRIIIa V158; target cells expressing a receptor of the EGFR family; relative to a reference material set to 100%) turned out to be 66%.
As for “IgG1, mono-sialylated variant (antibody)”, the relative ADCC activity (NK cell line expressing FcγRIIIa V158; target cells expressing a receptor of the EGFR family; relative to a reference material set to 100%) in assay [1] was 104%.

These data come from article PMC4534130.
